In the DeepSol protein solubility set:

Assay: soluble on expression in E. coli; label from the status in PepcDB or PDB records

Row | Sequence | soluble on expression in E. coli
1 | MDNNEKEKSKSELLVVTGLSGAGKSLVIQCLEDMGYFCVDNLPPVLLPKFVELMEQGNPSLRKVAIAIDLRGKELFNSLVAVVDKVKSESDVIIDVMFLEASTEKLISRYKETRRAHPLMEQGKRSLINAINDEREHLSQIRSIANFVIDTTKLSPKELKERIRRYYEDEEFETFTINVTSFGFKHGIQMDADLVFDVRFLPNPYYVVDLRPLTGLDKDVYNYVMKWKETEIFFEKLTDLLDFMIPGYKKEGKSQLVIAIGCTGGQHRSVALAERLGNYLNEVFEYNVYVHHRDAHIESGEKK | not soluble
2 | MGSDKIHHHHHHNKSEDKLSGDDFWAQGNETNAEAFLLSIYNSFRNATMSQRPFLTYSGDMRCAPITAYSTGDKYVAYLANNDMGELRNTYPDDARGGLIMQWDVFYTAIQDANILLAEIDKVPGMDELKRSRFKAEAIFMRSLSYFFIVRAFGDVPYYTNAYNEAPLPRTNMVIVLQNCLADLQPLLDDDPGAEVLPWSYSSYSSKGIRASRGSVIALMMHINLWLVQFDAQNKEQYYRNVVSLGEELERNNGAYSLLDINRSSVIFAGGSDEGLFEIAQNINFNEIFMMNAKFSDNVSYSCLNKSMPLFCYSGDYLMTLFPMYEDDARKELWFDEKIYSTSVSSSAPKEIKKFWNIDTYGNGTITSNSGNQIVFRYAGALLLYAEALAALGTNDTKACELLNRVRNRAHASEINTSGSELMDAIFWERCRELIGEGHYYYDLVRTGKVYNRNYCMNPMTRTNFNVGAWTWPIHRNALKNNTQIGLNLFWE | not soluble
3 | MSLTRQSLQQAAESRRSIYSLNKNLPVGKDEVVQIVEHAVLHTPSSFNSQSARVVVLFGEEHDKVWQFVEDALRAVVPADSFEPTAQKLNLFKAGAATILFYEDQNVVKGLQEQFPAYAANFPVWADQANAMVQYAVWTTLAAVGVGANLQHYNPLPDAAIAKAWNIPENWLLRAQMVIGGIEGAAGEKTFEPVAERLKVFGAEGGSHHHHHH | soluble
4 | MSIKVDMSLDCKGLACPMPIVKTKKAIEGLASGQVIEVKATDKGSTVDIKSWANKVGHQYIGTKHEGDILMHYVRKAHEHEVNEVVKYPHTITNTELEEILVSGEECTVLDVREAAEFAFGHIPSATSMPLGELESLVLDKTKQIYVVCRTGNRSDVACQMLKEKGYTNVKNVIPGMIEWQGNIENLEHHHHHH | soluble
5 | MDICSRNKKLTIRRPAILVALALLLCSCKSTPPESMVTPPAGSKPPATTQQSSQPMRGIWLATVSRLDWPPVSSVNISNPTSRARVQQQAMIDKLDHLQRLGINTVFFQVKPDGTALWPSKILPWSDLMTGKIGENPGYDPLQFMLDEAHKRGMKVHAWFNPYRVSVNTKPGTIRELNSTLSQQPASVYVQHRDWIRTSGDRFVLDPGIPEVQDWITSIVAEVVSRYPVDGVQFDDYFYTESPGSRLNDNETYRKYGGAFASKADWRRNNTQQLIAKVSHTIKSIKPGVEFGVSPAGVWRNRSHDPLGSDTRGAAAYDESYADTRRWVEQGLLDYIAPQIYWPFSRSAARYDVLAKWWADVVKPTRTRLYIGIAFYKVGEPSKIEPDWMINGGVPELKKQLDLNDAVPEISGTILFREDYLNKPQTQQAVSYLQSRWGS | soluble
6 | DVQLQESGPGLVKPSQSLSLTCTVTGYSITSLYAWNWIRQFPGNKLEWMGYINYSGYTSYNPSLKSRISITRDTSKNQFFLQLHSVTTEDTATYSCTRGVDYFAMDYWGQGASVTVSSAKTTAPSVYPLAPVCGDTTGSSVTLGCLVKGYFPEPVTLTWNSGSLSSGVHTFPALLQSDLYTLSSSVTVTSNTWPSQSITCNVAHPASSTKVDKKIVPRD | soluble
7 | MGSDKIHHHHHHMGIDELYKKEFGIVAGVDEAGRGCLAGPVVAAAVVLEKEIEGINDSKQLSPAKRERLLDEIMEKAAVGIGIASPEEIDLYNIFNATKLAMNRALENLSVKPSFVLVDGKGIELSVPGTCLVKGDQKSKLIGAASIVAKVFRDRLMSEFHRMYPQFSFHKHKGYATKEHLNEIRKNGVLPIHRLSFEPVLELLTDDLLREFFEKGLISENRFERILNLLGARKSVVFRKERTNHNLPLF | soluble
8 | MVTEFAKEMIKNADSCGAQDIYVIPRQDNYELYMRVGQERRLIDVYRPDFMASLIGHFKFVAGMMVGEKRRSQLGSCDYDCGDGHLVSLRLSTVGDYRGLESLVIRILH | not soluble
